Here are results for three molecules from paper PMC9606830, “GhBEE3-Like gene regulated by brassinosteroids is involved in cotton drought tolerance”.

The target of data set [1] is T1, GhBZR1-His (Gossypium hirsutum, UniProt A0A1B0QVW2 1-313).
T1 sequence: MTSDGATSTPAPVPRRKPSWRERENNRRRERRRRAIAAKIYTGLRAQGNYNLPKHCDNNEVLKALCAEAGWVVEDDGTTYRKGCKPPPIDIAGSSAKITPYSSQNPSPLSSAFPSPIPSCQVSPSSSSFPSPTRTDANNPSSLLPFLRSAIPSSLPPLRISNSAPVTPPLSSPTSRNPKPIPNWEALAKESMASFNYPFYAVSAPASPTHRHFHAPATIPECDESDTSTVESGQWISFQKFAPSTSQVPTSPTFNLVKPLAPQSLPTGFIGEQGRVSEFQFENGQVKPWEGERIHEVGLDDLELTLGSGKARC
The experiment in a line: EMSA; LightShift Chemiluminescent EMSA Kit (Thermo); buffer, salt, pH and temperature not stated. As to conditions: protein: recombinant; tags: C-terminal His (pET30a); chain copies: 2; label: biotin on both strands (text: 3'-end and 5'-end); blunt. A general note: In EMSA bound probe runs differently from free probe, usually more slowly.

The target in data set [2] is T1, GhBZR1-His. The experiment in a line: competition; unlabelled competitor against biotinylated GhBEE3-Like Probe; significantly reduced the shift; LightShift Chemiluminescent EMSA Kit (Thermo); buffer, salt, pH and temperature not stated. The following applies: protein: recombinant; tags: C-terminal His (pET30a); chain copies: 2; label: none; blunt.

B1: GhBEE3-Like Probe (dsDNA)
DNA 1: ACAATTACACGTGACATGTC
DNA 2: GACATGTCACGTGTAATTGT
For B1, the binding result in data set [1] is recorded as “binds”.

B2: Mutant Probe (dsDNA)
DNA 1: ACAATTAAGCGGAACATGTC
DNA 2: GACATGTTCCGCTTAATTGT
Turning to B2, the binding result in data set [1] is on record as “no binding”.

B3: Competitor Probe (dsDNA)
DNA 1: ACAATTACACGTGACATGTC
DNA 2: GACATGTCACGTGTAATTGT
As for B3, in data set [2], the binding result is reported as “binds”.
